Test results taken from patent EP4806514A2 (Lepu Biopharma Co., Ltd., dated 2025).

Columns and labels:
[1] = molecular target: T1, rhesus CDH17-his (Kactus, Cat. No. CDH-RM117) (rhesus, UniProt A0A1D5R2B4 23-784); assay: ELISA, rhesus CDH17-his coated at 1 ug/mL
T1 construct: range 23-784; also called rhesus CDH17 protein
T1 sequence: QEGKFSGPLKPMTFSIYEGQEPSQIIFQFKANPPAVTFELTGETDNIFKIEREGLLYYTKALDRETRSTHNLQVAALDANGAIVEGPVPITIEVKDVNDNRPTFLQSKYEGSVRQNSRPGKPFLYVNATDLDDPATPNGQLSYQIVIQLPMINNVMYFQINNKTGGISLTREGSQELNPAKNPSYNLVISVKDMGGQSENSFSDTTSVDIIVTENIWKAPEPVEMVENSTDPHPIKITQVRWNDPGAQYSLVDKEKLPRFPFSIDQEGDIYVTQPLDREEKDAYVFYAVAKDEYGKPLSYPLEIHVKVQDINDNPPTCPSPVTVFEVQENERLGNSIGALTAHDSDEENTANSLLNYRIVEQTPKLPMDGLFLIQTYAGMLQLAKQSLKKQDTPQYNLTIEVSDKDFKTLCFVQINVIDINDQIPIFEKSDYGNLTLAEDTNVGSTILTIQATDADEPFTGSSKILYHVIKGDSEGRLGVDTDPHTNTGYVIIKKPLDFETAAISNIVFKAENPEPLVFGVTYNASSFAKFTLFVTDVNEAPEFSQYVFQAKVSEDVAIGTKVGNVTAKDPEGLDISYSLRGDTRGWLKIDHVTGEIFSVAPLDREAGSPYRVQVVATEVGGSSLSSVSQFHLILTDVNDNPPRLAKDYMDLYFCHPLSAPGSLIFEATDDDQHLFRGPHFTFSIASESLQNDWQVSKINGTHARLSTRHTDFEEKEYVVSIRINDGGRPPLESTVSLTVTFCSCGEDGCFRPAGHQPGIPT

[2] = molecular target: T2, human CDH16 protein (hCDH16-his, Novoprotein, Cat. No. CJ16) (human, UniProt O75309 19-786); assay: ELISA, antigen coated at 1 ug/mL
T2 construct: Bought; also called human CDH16-his
T2 sequence (looked up): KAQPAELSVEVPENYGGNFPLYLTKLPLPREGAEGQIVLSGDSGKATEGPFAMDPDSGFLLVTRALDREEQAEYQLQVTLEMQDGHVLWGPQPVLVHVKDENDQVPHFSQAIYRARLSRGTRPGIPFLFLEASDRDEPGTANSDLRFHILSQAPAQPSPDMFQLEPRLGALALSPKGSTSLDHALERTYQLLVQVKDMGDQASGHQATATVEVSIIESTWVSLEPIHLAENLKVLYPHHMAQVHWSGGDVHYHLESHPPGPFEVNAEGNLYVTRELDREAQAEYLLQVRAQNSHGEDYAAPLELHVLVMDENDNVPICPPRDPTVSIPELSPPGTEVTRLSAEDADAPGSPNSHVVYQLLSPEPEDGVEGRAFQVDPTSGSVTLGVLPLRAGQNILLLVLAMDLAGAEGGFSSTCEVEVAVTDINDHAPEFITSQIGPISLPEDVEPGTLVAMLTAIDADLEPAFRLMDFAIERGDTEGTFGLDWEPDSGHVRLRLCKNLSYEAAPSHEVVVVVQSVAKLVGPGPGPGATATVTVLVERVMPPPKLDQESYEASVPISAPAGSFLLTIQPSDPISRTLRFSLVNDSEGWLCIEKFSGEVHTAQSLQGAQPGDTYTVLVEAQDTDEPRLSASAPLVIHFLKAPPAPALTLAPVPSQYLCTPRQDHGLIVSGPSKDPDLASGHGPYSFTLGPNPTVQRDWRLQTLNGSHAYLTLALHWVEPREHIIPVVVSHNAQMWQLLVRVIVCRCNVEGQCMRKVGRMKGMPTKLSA

[3] = molecular target: T3, human CDH6-his protein (Katcus, Cat. No. CDH-HM106) (human, UniProt P55285 54-615, limits assumed); assay: ELISA, antigen coated at 1 ug/mL
T3 construct: Bought; also called human CDH6 protein
T3 sequence (looked up): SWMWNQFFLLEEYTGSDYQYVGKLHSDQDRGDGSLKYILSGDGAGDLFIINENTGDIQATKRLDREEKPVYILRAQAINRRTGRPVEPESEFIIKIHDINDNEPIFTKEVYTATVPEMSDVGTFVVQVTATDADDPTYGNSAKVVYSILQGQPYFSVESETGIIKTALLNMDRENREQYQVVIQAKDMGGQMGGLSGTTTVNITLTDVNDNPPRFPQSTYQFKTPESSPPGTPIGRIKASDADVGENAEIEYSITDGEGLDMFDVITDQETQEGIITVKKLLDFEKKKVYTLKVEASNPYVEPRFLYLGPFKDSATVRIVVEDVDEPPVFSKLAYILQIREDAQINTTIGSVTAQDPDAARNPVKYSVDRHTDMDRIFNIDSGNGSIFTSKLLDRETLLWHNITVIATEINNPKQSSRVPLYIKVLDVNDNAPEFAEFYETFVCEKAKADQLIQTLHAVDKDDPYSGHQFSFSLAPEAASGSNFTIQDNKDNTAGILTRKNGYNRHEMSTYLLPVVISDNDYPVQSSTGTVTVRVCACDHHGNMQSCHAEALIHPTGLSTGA

[4] = molecular target: T4, rat CDH17-his (Sino bio, Cat. No. 80283-R08H) (rat, UniProt P55281 22-786); assay: ELISA, antigen coated at 1 ug/mL
T4 construct: Bought; also called rat CDH17 protein
T4 sequence (looked up): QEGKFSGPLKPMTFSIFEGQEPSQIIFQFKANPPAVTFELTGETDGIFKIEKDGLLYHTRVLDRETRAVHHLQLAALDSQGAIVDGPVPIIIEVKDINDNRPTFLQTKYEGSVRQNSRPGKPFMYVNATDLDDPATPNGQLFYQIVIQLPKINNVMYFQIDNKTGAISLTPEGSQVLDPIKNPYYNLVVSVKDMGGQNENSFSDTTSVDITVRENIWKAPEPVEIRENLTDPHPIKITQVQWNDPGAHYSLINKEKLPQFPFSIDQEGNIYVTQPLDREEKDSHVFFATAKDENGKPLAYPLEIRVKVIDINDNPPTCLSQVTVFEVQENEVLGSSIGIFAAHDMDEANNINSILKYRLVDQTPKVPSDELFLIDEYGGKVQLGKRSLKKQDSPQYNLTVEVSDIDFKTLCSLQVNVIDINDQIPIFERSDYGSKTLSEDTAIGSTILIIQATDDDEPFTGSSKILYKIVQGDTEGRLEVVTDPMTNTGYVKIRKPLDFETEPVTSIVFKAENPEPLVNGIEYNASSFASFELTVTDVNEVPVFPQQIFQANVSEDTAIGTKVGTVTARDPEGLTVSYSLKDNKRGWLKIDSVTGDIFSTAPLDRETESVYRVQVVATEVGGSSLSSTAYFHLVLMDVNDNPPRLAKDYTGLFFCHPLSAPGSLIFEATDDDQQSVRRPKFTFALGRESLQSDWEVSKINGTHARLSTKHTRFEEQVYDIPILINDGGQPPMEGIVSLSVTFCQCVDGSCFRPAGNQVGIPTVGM

- EC50 [1]: 163 pM
- binding result [2]: no binding (tested: titrated from 50 nM)
- binding result [3]: no binding (tested: titrated from 50 nM)
- binding result [4]: no binding (tested: titrated from 50 nM)
B1: 29H8D3-z12 (antibody, V domains shown)
VH: QVQLVQSGAEVKKPGASVKVSCKASGYTFTDHTIHWMRQRPGQGLEWIGYIYPRDGYTKYNEKFKDRATLTADTSTSTAYMELRSLRSDDTAVYYCARFYYGYWYFDVWGQGTTVTVSS
VL: DIVMTQSPLSLPVTPGEPASISCRSSKSLLRSNGNTYLYWFLQKPGQSPQVLIYRMSNLASGVPDRFSGSGSGTDFTLKISRVEAEDVGVYYCMQHLEYPFTFGQGTKLEIK
notes: Humanized, human IgG1 constant region; also called 29H8D3-z12 mAb
